Measurements: IntAct's records for PubMed 35512704

B1: Mothers against decapentaplegic homolog 4 (Homo sapiens), Q13485 (parent)
chain: MDNMSITNTPTSNDACLSIVHSLMCHRQGGESETFAKRAIESLVKKLKEKKDELDSLITAITTNGAHPSKCVTIQRTLDGRLQVAGRKGFPHVIYARLWRWPDLHKNELKHVKYCQYAFDLKCDSVCVNPYHYERVVSPGIDLSGLTLQSNAPSSMMVKDEYVHDFEGQPSLSTEGHSIQTIQHPPSNRASTETYSTPALLAPSESNATSTANFPNIPVASTSQPASILGGSHSEGLLQIASGPQPGQQQNGFTGQPATYHHNSTTTWTGSRTAPYTPNLPHHQNGHLQHHPPMPPHPGHYWPVHNELAFQPPISNHPAPEYWCSIAYFEMDVQVGETFKVPSSCPIVTVDGYVDPSGGDRFCLGQLSNVHRTEAIERARLHIGKGVQLECKGEGDVWVRCLSDHAVFVQSYYLDREAGRAPGDAVHKIYPSAYIKVFDLRQCHRQMQQQAATAQAAAAAQAAAVAGNIPGPGSVGGIAPAISLSAAAGIGVDDLRRLCILRMSFVKGWGPDYPRQSIKETPCWIEIHLHRALQLLDEVLHTMPIADPQPLD

Variants of: B1
Details: with grm1_human GRM1, Q13255
Sequence of grm1_human GRM1, Q13255 (Q13255 whole entry, looked up): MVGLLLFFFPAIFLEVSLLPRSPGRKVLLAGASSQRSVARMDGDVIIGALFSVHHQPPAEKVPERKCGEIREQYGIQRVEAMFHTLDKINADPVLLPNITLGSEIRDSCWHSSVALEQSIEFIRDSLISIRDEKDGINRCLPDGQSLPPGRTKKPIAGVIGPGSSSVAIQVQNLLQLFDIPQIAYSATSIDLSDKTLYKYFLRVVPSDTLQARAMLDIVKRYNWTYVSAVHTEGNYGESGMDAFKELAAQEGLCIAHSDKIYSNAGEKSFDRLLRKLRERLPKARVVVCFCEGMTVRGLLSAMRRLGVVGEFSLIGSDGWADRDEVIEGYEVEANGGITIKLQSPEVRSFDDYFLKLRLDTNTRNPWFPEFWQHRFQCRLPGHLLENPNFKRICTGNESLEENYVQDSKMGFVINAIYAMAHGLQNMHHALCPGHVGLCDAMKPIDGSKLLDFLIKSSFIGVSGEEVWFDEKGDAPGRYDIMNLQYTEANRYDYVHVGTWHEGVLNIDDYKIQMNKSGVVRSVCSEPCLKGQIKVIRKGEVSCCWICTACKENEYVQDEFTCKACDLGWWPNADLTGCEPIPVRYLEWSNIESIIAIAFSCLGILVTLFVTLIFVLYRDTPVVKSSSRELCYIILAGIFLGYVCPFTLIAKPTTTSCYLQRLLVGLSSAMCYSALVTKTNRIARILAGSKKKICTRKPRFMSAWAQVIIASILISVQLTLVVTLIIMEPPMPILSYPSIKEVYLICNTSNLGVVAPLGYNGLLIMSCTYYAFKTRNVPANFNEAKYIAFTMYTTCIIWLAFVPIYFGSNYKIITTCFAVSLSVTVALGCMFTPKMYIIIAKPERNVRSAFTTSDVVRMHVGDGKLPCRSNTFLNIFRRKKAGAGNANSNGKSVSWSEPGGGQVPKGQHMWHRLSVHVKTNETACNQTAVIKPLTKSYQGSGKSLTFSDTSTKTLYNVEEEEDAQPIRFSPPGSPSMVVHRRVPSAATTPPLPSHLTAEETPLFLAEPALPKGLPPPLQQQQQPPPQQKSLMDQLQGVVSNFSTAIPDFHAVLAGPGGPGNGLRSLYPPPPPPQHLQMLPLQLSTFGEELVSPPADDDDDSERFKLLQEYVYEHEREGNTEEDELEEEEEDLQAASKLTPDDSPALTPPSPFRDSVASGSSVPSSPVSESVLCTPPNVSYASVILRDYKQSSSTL

effect of a mutation on the interaction	Variant
with no effect	R361C

Variants of: B1
Details: with grm3_human GRM3, Q14832

effect of a mutation on the interaction	Variant
with no effect	R361C

Variants of: B1
Details: with gsk3a_human GSK3A

effect of a mutation on the interaction	Variant
with no effect	R361C

Variants of: B1
Details: with hdac1_human HDAC1, Q13547

effect of a mutation on the interaction	Variant
with no effect	R361C

Variants of: B1
Details: with hdac3_human HDAC3, O15379

effect of a mutation on the interaction	Variant
with no effect	R361C

Variants of: B1
Details: with hgf_human HGF

effect of a mutation on the interaction	Variant
with no effect	R361C

Variants of: B1
Details: with h31_human H3C1, P68431

effect of a mutation on the interaction	Variant
with no effect	R361C

Variants of: B1
Details: with hlab_human HLA-B

effect of a mutation on the interaction	Variant
with no effect	R361C

Variants of: B1
Details: with hnf1a_human HNF1A

effect of a mutation on the interaction	Variant
with no effect	R361C

Variants of: B1
Details: with rash_human HRAS

effect of a mutation on the interaction	Variant
with no effect	R361C

Variants of: B1
Details: with hs90a_human HSP90AA1, P07900

effect of a mutation on the interaction	Variant
with no effect	R361C

Variants of: B1
Details: with il7ra_human IL7R

effect of a mutation on the interaction	Variant
with no effect	R361C

Variants of: B1
Details: with irf6_human IRF6, O14896

effect of a mutation on the interaction	Variant
with no effect	R361C

Variants of: B1
Details: with irs1_human IRS1, P35568
Sequence of irs1_human IRS1, P35568 (P35568 whole entry): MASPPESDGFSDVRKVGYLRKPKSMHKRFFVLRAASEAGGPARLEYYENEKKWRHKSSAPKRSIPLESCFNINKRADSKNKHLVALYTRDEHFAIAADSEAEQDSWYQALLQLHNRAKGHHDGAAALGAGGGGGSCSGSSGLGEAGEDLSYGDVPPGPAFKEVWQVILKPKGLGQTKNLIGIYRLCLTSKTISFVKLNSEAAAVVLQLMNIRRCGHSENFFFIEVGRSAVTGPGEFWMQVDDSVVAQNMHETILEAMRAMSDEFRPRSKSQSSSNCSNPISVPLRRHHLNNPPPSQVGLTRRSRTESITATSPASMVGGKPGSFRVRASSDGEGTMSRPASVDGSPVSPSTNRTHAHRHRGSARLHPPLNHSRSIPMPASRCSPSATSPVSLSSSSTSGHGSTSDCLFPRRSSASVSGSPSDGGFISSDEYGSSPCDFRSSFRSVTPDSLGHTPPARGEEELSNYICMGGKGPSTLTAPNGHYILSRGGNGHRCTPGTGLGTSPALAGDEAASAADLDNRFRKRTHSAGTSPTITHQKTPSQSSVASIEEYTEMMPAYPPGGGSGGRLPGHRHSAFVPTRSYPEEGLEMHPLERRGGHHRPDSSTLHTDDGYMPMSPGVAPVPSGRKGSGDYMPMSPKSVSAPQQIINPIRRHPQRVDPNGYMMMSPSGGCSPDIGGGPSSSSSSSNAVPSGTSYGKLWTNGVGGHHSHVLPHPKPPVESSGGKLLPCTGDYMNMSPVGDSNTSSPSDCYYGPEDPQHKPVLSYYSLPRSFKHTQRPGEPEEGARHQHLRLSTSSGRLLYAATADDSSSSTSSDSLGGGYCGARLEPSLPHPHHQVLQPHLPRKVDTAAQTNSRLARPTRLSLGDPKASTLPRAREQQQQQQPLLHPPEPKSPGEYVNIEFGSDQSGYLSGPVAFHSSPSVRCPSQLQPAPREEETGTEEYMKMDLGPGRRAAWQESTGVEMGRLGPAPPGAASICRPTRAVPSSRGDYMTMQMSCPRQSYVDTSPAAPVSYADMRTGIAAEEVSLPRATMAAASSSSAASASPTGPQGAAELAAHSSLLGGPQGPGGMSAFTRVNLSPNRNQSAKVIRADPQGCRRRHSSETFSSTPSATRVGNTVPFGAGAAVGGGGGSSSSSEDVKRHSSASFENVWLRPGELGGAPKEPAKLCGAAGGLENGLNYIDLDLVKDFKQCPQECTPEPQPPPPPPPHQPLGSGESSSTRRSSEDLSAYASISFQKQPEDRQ

effect of a mutation on the interaction	Variant
with no effect	R361C

Variants of: B1
Details: with jak1_human JAK1, P23458

effect of a mutation on the interaction	Variant
with no effect	R361C

Variants of: B1
Details: with jak3_human JAK3, P52333

effect of a mutation on the interaction	Variant
with no effect	R361C

Variants of: B1
Details: with kdm5c_human KDM5C

effect of a mutation on the interaction	Variant
with no effect	R361C

Variants of: B1
Details: with vgfr2_human KDR

effect of a mutation on the interaction	Variant
with no effect	R361C

Variants of: B1
Details: with keap1_human KEAP1, Q14145

effect of a mutation on the interaction	Variant
with no effect	R361C

Variants of: B1
Details: with klf4_human KLF4, O43474

effect of a mutation on the interaction	Variant
with no effect	R361C

Variants of: B1
Details: with maga6_human MAGEA6, P43360

effect of a mutation on the interaction	Variant
with no effect	R361C

Variants of: B1
Details: with mp2k7_human MAP2K7, O14733
Sequence of mp2k7_human MAP2K7, O14733 (O14733 whole entry): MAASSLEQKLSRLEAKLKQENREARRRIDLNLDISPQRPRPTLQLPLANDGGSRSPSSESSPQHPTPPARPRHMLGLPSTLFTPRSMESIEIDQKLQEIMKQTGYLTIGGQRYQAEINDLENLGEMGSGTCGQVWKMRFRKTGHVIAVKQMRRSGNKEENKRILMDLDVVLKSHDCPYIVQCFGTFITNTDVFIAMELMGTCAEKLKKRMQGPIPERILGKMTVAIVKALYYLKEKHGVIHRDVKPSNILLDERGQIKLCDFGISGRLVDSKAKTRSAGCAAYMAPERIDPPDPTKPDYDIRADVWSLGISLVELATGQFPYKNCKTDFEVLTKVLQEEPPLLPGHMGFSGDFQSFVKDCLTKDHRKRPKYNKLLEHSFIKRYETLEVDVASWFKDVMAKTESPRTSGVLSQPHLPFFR

effect of a mutation on the interaction	Variant
with no effect	R361C

Variants of: B1
Details: with m3k1_human MAP3K1, Q13233

effect of a mutation on the interaction	Variant
with no effect	R361C

Variants of: B1
Details: with mk10_human MAPK10, P53779
Sequence of mk10_human MAPK10, P53779 (P53779 whole entry): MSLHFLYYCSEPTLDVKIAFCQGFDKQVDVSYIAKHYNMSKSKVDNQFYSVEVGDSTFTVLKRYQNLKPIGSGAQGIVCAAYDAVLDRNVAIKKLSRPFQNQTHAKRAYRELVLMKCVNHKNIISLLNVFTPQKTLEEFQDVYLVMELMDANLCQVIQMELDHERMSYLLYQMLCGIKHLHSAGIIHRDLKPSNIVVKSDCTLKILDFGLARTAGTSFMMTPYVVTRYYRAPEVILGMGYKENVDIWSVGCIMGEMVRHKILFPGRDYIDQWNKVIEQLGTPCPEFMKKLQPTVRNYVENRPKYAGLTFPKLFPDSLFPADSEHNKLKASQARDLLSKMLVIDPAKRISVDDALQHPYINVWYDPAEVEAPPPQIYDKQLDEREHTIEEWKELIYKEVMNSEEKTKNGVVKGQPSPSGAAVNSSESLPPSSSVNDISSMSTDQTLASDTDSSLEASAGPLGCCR

effect of a mutation on the interaction	Variant
with no effect	R361C

Variants of: B1
Details: with mk14_human MAPK14, Q16539

effect of a mutation on the interaction	Variant
with no effect	R361C

Variants of: B1
Details: with mk03_human MAPK3, P27361

effect of a mutation on the interaction	Variant
with no effect	R361C

Variants of: B1
Details: with mk04_human MAPK4, P31152

effect of a mutation on the interaction	Variant
with no effect	R361C

Variants of: B1
Details: with mk06_human MAPK6, Q16659

effect of a mutation on the interaction	Variant
with no effect	R361C

Variants of: B1
Details: with mcl1_human MCL1, Q07820
Sequence of mcl1_human MCL1, Q07820 (Q07820 whole entry): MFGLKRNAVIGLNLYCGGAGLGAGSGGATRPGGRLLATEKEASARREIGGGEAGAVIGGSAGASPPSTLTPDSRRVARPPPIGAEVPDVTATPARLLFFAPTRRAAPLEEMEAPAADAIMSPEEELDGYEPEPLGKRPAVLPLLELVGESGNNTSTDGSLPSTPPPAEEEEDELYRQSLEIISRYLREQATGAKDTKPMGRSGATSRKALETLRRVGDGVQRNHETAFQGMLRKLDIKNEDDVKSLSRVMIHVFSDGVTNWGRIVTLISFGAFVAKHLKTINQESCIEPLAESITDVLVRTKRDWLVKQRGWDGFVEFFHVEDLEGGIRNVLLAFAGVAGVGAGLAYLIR

effect of a mutation on the interaction	Variant
with no effect	R361C

Variants of: B1
Details: with mitf_human MITF

effect of a mutation on the interaction	Variant
with no effect	R361C

Variants of: B1
Details: with myc_human MYC

effect of a mutation on the interaction	Variant
with no effect	R361C

Variants of: B1
Details: with nf1_human NF1, P21359

effect of a mutation on the interaction	Variant
with no effect	R361C

Variants of: B1
Details: with merl_human NF2, P35240

effect of a mutation on the interaction	Variant
with no effect	R361C

Variants of: B1
Details: with nfic_human NFIC

effect of a mutation on the interaction	Variant
with no effect	R361C

Variants of: B1
Details: with notc2_human NOTCH2, Q04721

effect of a mutation on the interaction	Variant
with no effect	R361C

Variants of: B1
Details: with pak3_human PAK3, O75914

effect of a mutation on the interaction	Variant
with no effect	R361C

Variants of: B1
Details: with pax5_human PAX5, Q02548
Sequence of pax5_human PAX5, Q02548 (Q02548 whole entry): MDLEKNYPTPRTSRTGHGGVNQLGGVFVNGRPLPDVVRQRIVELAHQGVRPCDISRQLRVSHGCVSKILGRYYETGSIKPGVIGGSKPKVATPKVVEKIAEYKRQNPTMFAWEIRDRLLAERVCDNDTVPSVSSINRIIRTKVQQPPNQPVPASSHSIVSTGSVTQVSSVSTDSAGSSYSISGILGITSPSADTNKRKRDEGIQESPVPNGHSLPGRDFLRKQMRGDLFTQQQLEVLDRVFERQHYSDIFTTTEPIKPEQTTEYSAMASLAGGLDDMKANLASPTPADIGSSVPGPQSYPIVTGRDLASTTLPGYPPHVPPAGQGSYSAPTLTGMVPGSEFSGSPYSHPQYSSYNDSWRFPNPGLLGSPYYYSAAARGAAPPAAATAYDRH

effect of a mutation on the interaction	Variant
with no effect	R361C

Variants of: B1
Details: with pax9_human PAX9, P55771

effect of a mutation on the interaction	Variant
with no effect	R361C

Variants of: B1
Details: with pb1_human PBRM1, Q86U86

effect of a mutation on the interaction	Variant
with no effect	R361C

Variants of: B1
Details: with pcbp1_human PCBP1, Q15365

effect of a mutation on the interaction	Variant
with no effect	R361C

Variants of: B1
Details: with pgfra_human PDGFRA

effect of a mutation on the interaction	Variant
with no effect	R361C

Variants of: B1
Details: with pgfrb_human PDGFRB

effect of a mutation on the interaction	Variant
with no effect	R361C

Variants of: B1
Details: with pdk1_human PDK1, Q15118

effect of a mutation on the interaction	Variant
with no effect	R361C

Variants of: B1
Details: with PIK3C2B

effect of a mutation on the interaction	Variant
with no effect	R361C

Variants of: B1
Details: with pk3c3_human PIK3C3, Q8NEB9
Sequence of pk3c3_human PIK3C3, Q8NEB9 (Q8NEB9 whole entry): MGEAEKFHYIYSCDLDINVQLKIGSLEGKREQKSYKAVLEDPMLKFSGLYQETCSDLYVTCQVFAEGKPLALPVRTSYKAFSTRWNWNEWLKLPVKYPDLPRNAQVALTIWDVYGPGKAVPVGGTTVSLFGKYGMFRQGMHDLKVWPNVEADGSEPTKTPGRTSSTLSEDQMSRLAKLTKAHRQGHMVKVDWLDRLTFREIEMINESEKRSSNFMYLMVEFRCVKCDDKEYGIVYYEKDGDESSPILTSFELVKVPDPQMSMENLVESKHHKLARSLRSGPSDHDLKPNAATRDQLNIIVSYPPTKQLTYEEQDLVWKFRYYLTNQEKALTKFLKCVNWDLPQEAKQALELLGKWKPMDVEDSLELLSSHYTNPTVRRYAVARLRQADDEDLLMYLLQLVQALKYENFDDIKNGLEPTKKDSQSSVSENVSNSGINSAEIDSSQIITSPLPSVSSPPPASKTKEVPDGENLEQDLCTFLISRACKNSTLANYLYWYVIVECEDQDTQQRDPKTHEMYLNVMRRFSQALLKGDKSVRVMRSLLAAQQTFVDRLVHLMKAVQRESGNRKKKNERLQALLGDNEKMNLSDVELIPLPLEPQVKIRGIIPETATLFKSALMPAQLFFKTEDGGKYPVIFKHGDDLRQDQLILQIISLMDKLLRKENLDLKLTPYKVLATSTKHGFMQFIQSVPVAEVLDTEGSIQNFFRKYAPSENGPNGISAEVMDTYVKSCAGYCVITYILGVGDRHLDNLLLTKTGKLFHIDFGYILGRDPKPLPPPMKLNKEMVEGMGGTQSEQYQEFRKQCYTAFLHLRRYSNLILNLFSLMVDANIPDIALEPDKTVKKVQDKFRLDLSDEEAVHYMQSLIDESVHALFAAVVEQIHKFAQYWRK

effect of a mutation on the interaction	Variant
with no effect	R361C

Variants of: B1
Details: with pk3ca_human PIK3CA

effect of a mutation on the interaction	Variant
with no effect	R361C

Variants of: B1
Details: with pk3cg_human PIK3CG

effect of a mutation on the interaction	Variant
with no effect	R361C

Variants of: B1
Details: with p85a_human PIK3R1, P27986

effect of a mutation on the interaction	Variant
with no effect	R361C

Variants of: B1
Details: with p85b_human PIK3R2, O00459

effect of a mutation on the interaction	Variant
with no effect	R361C

Variants of: B1
Details: with dpod1_human POLD1, P28340

effect of a mutation on the interaction	Variant
with no effect	R361C

Variants of: B1
Details: with dpoe1_human POLE

effect of a mutation on the interaction	Variant
with no effect	R361C

Variants of: B1
Details: with lipa1_human PPFIA1, Q13136

effect of a mutation on the interaction	Variant
with no effect	R361C

Variants of: B1
Details: with 2aaa_human PPP2R1A

effect of a mutation on the interaction	Variant
with no effect	R361C

Variants of: B1
Details: with prdm1_human PRDM1, O75626

effect of a mutation on the interaction	Variant
with no effect	R361C

Variants of: B1
Details: with aapk2_human PRKAA2, P54646

effect of a mutation on the interaction	Variant
with no effect	R361C

Variants of: B1
Details: with aakb2_human PRKAB2, O43741

effect of a mutation on the interaction	Variant
with no effect	R361C

Variants of: B1
Details: with prss8_human PRSS8, Q16651

effect of a mutation on the interaction	Variant
with no effect	R361C

Variants of: B1
Details: with ptk6_human PTK6, Q13882

effect of a mutation on the interaction	Variant
with no effect	R361C

Variants of: B1
Details: with tf65_human RELA

effect of a mutation on the interaction	Variant
with no effect	R361C

Variants of: B1
Details: with rnf43_human RNF43, Q68DV7

effect of a mutation on the interaction	Variant
with no effect	R361C
